Experimental data reported in publication PMC6344859, “Structural basis for acceptor RNA substrate selectivity of the 3′ terminal uridylyl transferase Tailor”.

Experiments:
Tailor (DmTailor180-560) [1] = biological target: T1, Tailor (DmTailor180-560) (Drosophila melanogaster, UniProt Q9VI58 180-560); test: crystal structure (1.85 A); two Mg2+; Crystallization conditions not in material; protein stock 20 mM HEPES pH 7.0, 150 mM KCl, 2 mM MgCl2, 1 mM DTT; settings: protein: recombinant; tags: none after TEV cleavage (His6-MBP removed); single strand
T1 sequence (Q9VI58 180-560): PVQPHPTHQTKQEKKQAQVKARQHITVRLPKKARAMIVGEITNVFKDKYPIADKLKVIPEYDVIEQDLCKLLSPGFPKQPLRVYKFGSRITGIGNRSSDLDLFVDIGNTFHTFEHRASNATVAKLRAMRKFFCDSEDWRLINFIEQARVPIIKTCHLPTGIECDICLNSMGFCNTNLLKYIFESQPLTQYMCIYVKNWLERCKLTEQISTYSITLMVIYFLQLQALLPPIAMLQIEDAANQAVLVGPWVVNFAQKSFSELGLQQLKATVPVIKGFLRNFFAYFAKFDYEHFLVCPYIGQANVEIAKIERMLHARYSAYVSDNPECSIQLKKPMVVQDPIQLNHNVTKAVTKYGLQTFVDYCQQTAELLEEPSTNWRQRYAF

Tailor (DmTailor180-560) [2] = biological target: T1, Tailor (DmTailor180-560); test: crystal structure (2.0 A); two Mg2+; Crystallization conditions not in material; protein stock 20 mM HEPES pH 7.0, 150 mM KCl, 2 mM MgCl2, 1 mM DTT; settings: protein: recombinant; tags: none after TEV cleavage (His6-MBP removed); single strand

| Binder | binding result (Tailor (DmTailor180-560) [1]) | binding result (Tailor (DmTailor180-560) [2]) |
| --- | --- | --- |
| CACAGU (ssRNA) | binds |  |
| UUUUUU (ssRNA) [U6] |  | binds |
